Consider two substances from patent US20100003232.

Targets include amyloid-β peptide (1-42) (UniProt P05067); β-Amyloid (1-40) (UniProt P05067); Human insulin (UniProt P01308).
Data set [1] deals with Aβ produced naturally by APPswe.3 cells (secreted Aβ in conditioned medium) (UniProt P05067).
For data set [2], the target named is secreted ectodomain of the amyloid precursor protein derivative generated by α-secretase (APPsα) (UniProt P05067).

Sequence of UniProt P01308 (P01308 whole entry, looked up): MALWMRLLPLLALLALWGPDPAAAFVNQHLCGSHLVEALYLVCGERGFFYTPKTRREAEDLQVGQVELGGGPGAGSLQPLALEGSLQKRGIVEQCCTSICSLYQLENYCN

By Hill coefficient is commonly meant the slope factor of the fitted curve. With IDE D426C/K899C double cysteine mutant, the “degradation followed by MALDI-TOF” value with amyloid-β peptide (1-42) was “all three double cysteine IDE mutants degraded both insulin and Aβ(1-42) more effectively than wild-type IDE”. The “t½ for the degradation of secreted Aβ” value in data set [1] is listed as “that by the IDE D426C/K899C mutant was 2 minutes”. Further, in the data set with β-Amyloid (1-40), the Hill coefficient was 2.3 and the Kcat amounted to 20 s⁻¹. Also, the “degradation in conditioned medium (Western blot)” value in data set [2] is given as “IDE had no effect on the secreted ectodomain of the amyloid precursor protein derivative generated by α-secretase (APPsα)”. Besides, the “degradation followed by MALDI-TOF” value with Human insulin is “all three double cysteine IDE mutants degraded both insulin and Aβ(1-42) more effectively than wild-type IDE”.

For orientation: Km means the substrate concentration at which the rate is half of its maximum. In the case of “wild type human insulin-degrading enzyme (IDE)”, the “t½ for the degradation of secreted Aβ” value in data set [1] is “The estimated t½ for the degradation of secreted Aβ by wild-type IDE was 11 minutes”. Further, in the data set with β-Amyloid (1-40), the Hill coefficient worked out at 2.9, the Kcat was found to be 8 s⁻¹ and the Km was 25 µM. Also, the “degradation in conditioned medium (Western blot)” value in data set [2] is reported as “IDE had no effect on the secreted ectodomain of the amyloid precursor protein derivative generated by α-secretase (APPsα)”.
